Changes are numbered by the printed parent chain.
T1: IL-10R1-Fc (UniProt Q13651 22-235, limits assumed)
T1 sequence (looked up): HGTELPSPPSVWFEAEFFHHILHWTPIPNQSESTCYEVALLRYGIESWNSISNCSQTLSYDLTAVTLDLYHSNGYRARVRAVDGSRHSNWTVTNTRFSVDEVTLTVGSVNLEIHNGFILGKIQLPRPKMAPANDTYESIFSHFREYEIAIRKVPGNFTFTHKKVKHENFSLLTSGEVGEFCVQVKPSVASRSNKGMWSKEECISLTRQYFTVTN

B1: IL-10 Gln42Cys-R4-19 (ligand, human, UniProt P22301 19-178, looked up)
chain: SPGQGTQSENSCTHFPGNLPNMLRDLRDAFSRVKTFFQMKDCLDNLLLKESLLEDFKGYLGCQALSEMIQFYLEEVMPQAENQDPDIKAHVNSLGENLKTLRLRLRRCHRFLPCENKSKAVEQVKNAFNKLQEKGIYKAMSEFDIFINYIEAYMTMKIRN
modifications: R4-19 on Cys 42
notes: mature
B2: IL-10 Leu105Cys-R4-6 (ligand, human, UniProt P22301 19-178, looked up)
chain: B1 chain with C42Q, L105C
modifications: R4-6 on Cys 105
notes: mature
B3: IL-10 Leu131Cys-R4-6 (ligand, human, UniProt P22301 19-178, looked up)
chain: B1 chain with C42Q, L131C
modifications: R4-6 on Cys 131
notes: mature
B4: IL-10 Leu46Cys-S48 (ligand, human, UniProt P22301 19-178, looked up)
chain: B1 chain with C42Q, L46C
modifications: S48 on Cys 46
notes: mature
B5: IL-10 Lys49Cys-R4-5 (ligand, human, UniProt P22301 19-178, looked up)
chain: B1 chain with C42Q, K49C
modifications: R4-5 on Cys 49
notes: mature
B6: IL-10 Leu65Cys-R4-6 (ligand, human, UniProt P22301 19-178, looked up)
chain: B1 chain with C42Q, L65C
modifications: R4-6 on Cys 65
notes: mature
B7: IL-10 Leu23Cys-R4-6 (ligand, human, UniProt P22301 19-178, looked up)
chain: B1 chain with L23C, C42Q
modifications: R4-6 on Cys 23
notes: mature
B8: IL-10 Leu46Cys-R4-6 (ligand, human, UniProt P22301 19-178, looked up)
chain: B1 chain with C42Q, L46C
modifications: R4-6 on Cys 46
notes: mature
B9: IL-10 Leu105Cys-S48 (ligand, human, UniProt P22301 19-178, looked up)
chain: B1 chain with C42Q, L105C
modifications: S48 on Cys 105
notes: mature
B10: IL-10 Lys138Cys-R4-7 (ligand, human, UniProt P22301 19-178, looked up)
chain: B1 chain with C42Q, K138C
modifications: R4-7 on Cys 138
notes: mature
B11: IL-10 Leu19Cys-R4-7 (ligand, human, UniProt P22301 19-178, looked up)
chain: B1 chain with L19C, C42Q
modifications: R4-7 on Cys 19
notes: mature
B12: IL-10 Leu94Cys-R4-6 (ligand, human, UniProt P22301 19-178, looked up)
chain: B1 chain with C42Q, L94C
modifications: R4-6 on Cys 94
notes: mature
B13: IL-10 Glu151Cys-S48 (ligand, human, UniProt P22301 19-178, looked up)
chain: B1 chain with C42Q, E151C
modifications: S48 on Cys 151
notes: mature
B14: IL-10 Phe111Cys-S48 (ligand, human, UniProt P22301 19-178, looked up)
chain: B1 chain with C42Q, F111C
modifications: S48 on Cys 111
notes: mature
B15: IL-10 Phe143Cys-R4-8 (ligand, human, UniProt P22301 19-178, looked up)
chain: B1 chain with C42Q, F143C
modifications: R4-8 on Cys 143
notes: mature
B16: IL-10 Met140Cys-S48 (ligand, human, UniProt P22301 19-178, looked up)
chain: B1 chain with C42Q, M140C
modifications: S48 on Cys 140
notes: mature
B17: IL-10 Leu19Cys-S48 (ligand, human, UniProt P22301 19-178, looked up)
chain: B1 chain with L19C, C42Q
modifications: S48 on Cys 19
notes: mature
B18: IL-10 Leu131Cys-S48 (ligand, human, UniProt P22301 19-178, looked up)
chain: B1 chain with C42Q, L131C
modifications: S48 on Cys 131
notes: mature
B19: IL-10 Leu23Cys-S48 (ligand, human, UniProt P22301 19-178, looked up)
chain: B1 chain with L23C, C42Q
modifications: S48 on Cys 23
notes: mature
B20: IL-10 Phe111Cys-R4-8 (ligand, human, UniProt P22301 19-178, looked up)
chain: B1 chain with C42Q, F111C
modifications: R4-8 on Cys 111
notes: mature
B21: IL-10 Gly17Cys-S48 (ligand, human, UniProt P22301 19-178, looked up)
chain: B1 chain with G17C, C42Q
modifications: S48 on Cys 17
notes: mature
B22: IL-10 Lys134Cys-S48 (ligand, human, UniProt P22301 19-178, looked up)
chain: B1 chain with C42Q, K134C
modifications: S48 on Cys 134
notes: mature
B23: IL-10 Ile69Cys-S48 (ligand, human, UniProt P22301 19-178, looked up)
chain: B1 chain with C42Q, I69C
modifications: S48 on Cys 69
notes: mature
B24: IL-10 Leu65Cys-S48 (ligand, human, UniProt P22301 19-178, looked up)
chain: B1 chain with C42Q, L65C
modifications: S48 on Cys 65
notes: mature
B25: IL-10 Glu50Cys-R4-12 (ligand, human, UniProt P22301 19-178, looked up)
chain: B1 chain with C42Q, E50C
modifications: R4-12 on Cys 50
notes: mature
B26: IL-10 Phe30Cys-R4-8 (ligand, human, UniProt P22301 19-178, looked up)
chain: B1 chain with F30C, C42Q
modifications: R4-8 on Cys 30
notes: mature
B27: IL-10 Lys157Cys-S48 (ligand, human, UniProt P22301 19-178, looked up)
chain: B1 chain with C42Q, K157C
modifications: S48 on Cys 157
notes: mature
B28: IL-10 Met140Cys-R4-1 (ligand, human, UniProt P22301 19-178, looked up)
chain: B1 chain with C42Q, M140C
modifications: R4-1 on Cys 140
notes: mature
B29: IL-10 Glu142Cys-S48 (ligand, human, UniProt P22301 19-178, looked up)
chain: B1 chain with C42Q, E142C
modifications: S48 on Cys 142
notes: mature
B30: IL-10 Glu142Cys-R4-12 (ligand, human, UniProt P22301 19-178, looked up)
chain: B1 chain with C42Q, E142C
modifications: R4-12 on Cys 142
notes: mature
B31: IL-10 Gly17Cys-R4-1 (ligand, human, UniProt P22301 19-178, looked up)
chain: B1 chain with G17C, C42Q
modifications: R4-1 on Cys 17
notes: mature
B32: IL-10 Leu48Cys-R4-7 (ligand, human, UniProt P22301 19-178, looked up)
chain: B1 chain with C42Q, L48C
modifications: R4-7 on Cys 48
notes: mature
B33: IL-10 Leu26Cys-S48 (ligand, human, UniProt P22301 19-178, looked up)
chain: B1 chain with L26C, C42Q
modifications: S48 on Cys 26
notes: mature
B34: IL-10 Ile69Cys-R4-6 (ligand, human, UniProt P22301 19-178, looked up)
chain: B1 chain with C42Q, I69C
modifications: R4-6 on Cys 69
notes: mature
B35: IL-10 Glu50Cys-S48 (ligand, human, UniProt P22301 19-178, looked up)
chain: B1 chain with C42Q, E50C
modifications: S48 on Cys 50
notes: mature
B36: IL-10 Glu151Cys-R4-12 (ligand, human, UniProt P22301 19-178, looked up)
chain: B1 chain with C42Q, E151C
modifications: R4-12 on Cys 151
notes: mature
B37: IL-10 Lys49Cys-S48 (ligand, human, UniProt P22301 19-178, looked up)
chain: B1 chain with C42Q, K49C
modifications: S48 on Cys 49
notes: mature
B38: IL-10 Lys117Cys-R4-7 (ligand, human, UniProt P22301 19-178, looked up)
chain: B1 chain with C42Q, K117C
modifications: R4-7 on Cys 117
notes: mature
B39: IL-10 Gly135Cys-S48 (ligand, human, UniProt P22301 19-178, looked up)
chain: B1 chain with C42Q, G135C
modifications: S48 on Cys 135
notes: mature
B40: IL-10 Lys134Cys-R4-7 (ligand, human, UniProt P22301 19-178, looked up)
chain: B1 chain with C42Q, K134C
modifications: R4-7 on Cys 134
notes: mature
B41: IL-10 Gly135Cys-R4-1 (ligand, human, UniProt P22301 19-178, looked up)
chain: B1 chain with C42Q, G135C
modifications: R4-1 on Cys 135
notes: mature
B42: IL-10 Lys117Cys-S48 (ligand, human, UniProt P22301 19-178, looked up)
chain: B1 chain with C42Q, K117C
modifications: S48 on Cys 117
notes: mature
B43: IL-10 Ile158Cys-S48 (ligand, human, UniProt P22301 19-178, looked up)
chain: B1 chain with C42Q, I158C
modifications: S48 on Cys 158
notes: mature
B44: IL-10 Leu53Cys-S48 (ligand, human, UniProt P22301 19-178, looked up)
chain: B1 chain with C42Q, L53C
modifications: S48 on Cys 53
notes: mature
B45: IL-10 Gln42Cys-S48 (ligand, human, UniProt P22301 19-178, looked up)
chain: B1 chain
modifications: S48 on Cys 42
notes: mature
B46: IL-10 Leu94Cys-S48 (ligand, human, UniProt P22301 19-178, looked up)
chain: B1 chain with C42Q, L94C
modifications: S48 on Cys 94
notes: mature
B47: IL-10 Met39Cys-S48 (ligand, human, UniProt P22301 19-178, looked up)
chain: B1 chain with M39C, C42Q
modifications: S48 on Cys 39
notes: mature
B48: IL-10 Lys138Cys-S48 (ligand, human, UniProt P22301 19-178, looked up)
chain: B1 chain with C42Q, K138C
modifications: S48 on Cys 138
notes: mature
B49: IL-10 Phe30Cys-S48 (ligand, human, UniProt P22301 19-178, looked up)
chain: B1 chain with F30C, C42Q
modifications: S48 on Cys 30
notes: mature
B50: IL-10 Leu48Cys-S48 (ligand, human, UniProt P22301 19-178, looked up)
chain: B1 chain with C42Q, L48C
modifications: S48 on Cys 48
notes: mature
B51: IL-10 Leu53Cys-R4-6 (ligand, human, UniProt P22301 19-178, looked up)
chain: B1 chain with C42Q, L53C
modifications: R4-6 on Cys 53
notes: mature
B52: IL-10 Lys157Cys-R4-7 (ligand, human, UniProt P22301 19-178, looked up)
chain: B1 chain with C42Q, K157C
modifications: R4-7 on Cys 157
notes: mature
B53: IL-10 Met39Cys-R4-1 (ligand, human, UniProt P22301 19-178, looked up)
chain: B1 chain with M39C, C42Q
modifications: R4-1 on Cys 39
notes: mature
B54: IL-10 Ile158Cys-R4-6 (ligand, human, UniProt P22301 19-178, looked up)
chain: B1 chain with C42Q, I158C
modifications: R4-6 on Cys 158
notes: mature
B55: IL-10 Leu26Cys-R4-6 (ligand, human, UniProt P22301 19-178, looked up)
chain: B1 chain with L26C, C42Q
modifications: R4-6 on Cys 26
notes: mature

Target: T1, IL-10R1-Fc
Test: ELISA, IL-10R1-Fc coated

Binding recovery (>60%)	Decreased fold of binding to ligand after Conjugating with S48	Binder
90%	–	B1
92.3%	–	B2
98.5%	–	B3
–	22 fold	B4
114%	–	B5
92.3%	–	B6
101%	–	B7
89.6%	–	B8
–	5 fold	B9
97.6%	–	B10
95.3%	–	B11
88.4%	–	B12
–	13 fold	B13
–	12 fold	B14
69%	–	B15
–	3 fold	B16
–	8 fold	B17
–	5 fold	B18
–	12 fold	B19
90.1%	–	B20
–	15 fold	B21
–	5 fold	B22
–	3 fold	B23
–	3 fold	B24
99.8%	–	B25
97.1%	–	B26
–	3 fold	B27
89%	–	B28

Binding recovery (>60%)	Decreased fold of binding to ligand after Conjugating with S48	Binder
–	13 fold	B29
78%	–	B30
90.2%	–	B31
98.9%	–	B32
–	3 fold	B33
97.3%	–	B34
–	4 fold	B35
82.5%	–	B36
–	7 fold	B37
117%	–	B38
–	3 fold	B39
128%	–	B40
99.5%	–	B41
–	3 fold	B42
–	9 fold	B43
–	3 fold	B44
–	18 fold	B45
–	5 fold	B46
–	62 fold	B47
–	23 fold	B48
–	6 fold	B49
–	3 fold	B50
99.4%	–	B51
98.6%	–	B52
88%	–	B53
81.7%	–	B54
93.4%	–	B55
